Laboratory results from the DeepSol protein solubility set.

Experiment: soluble on expression in E. coli; label from the status in PepcDB or PDB records

Sequence | soluble on expression in E. coli
MRRNKRERQELLQQTIQATPFITDEELAGKFGVSIQTIRLDRLELSIPELRERIKNVAEKTLEDEVKSLSLDEVIGEIIDLELDDQAISILEIKQEHVFSRNQIARGHHLFAQANSLAVAVIDDELALTASADIRFTRQVKQGERVVAKAKVTAVEKEKGRTVVEVNSYVGEEIVFSGRFDMYRSKHSLEHHHHHH | soluble
MQTDSLSPSPNPVSPVPLNNPTSAPRYGTVIPNRIFVGGIDFKTNESDLRKFFSQYGSVKEVKIVNDRAGVSKGYGFVTFETQEDAQKILQEAEKLNYKDKKLNIGPAIRKQQVGIPRSSIMPAAGTMYLTTSTGYPYTYHNGVAYFHTPEVTSVPPPWPSRSVCSSPVMVAQPIYQQPAYHYQATTQYLPGQWQWSVPQPSASSAPFLYLQPSEVIYQPVEIAQDGGCVPPPLSLMETSVPEPYSDHGVQATYHQVYAPSAITMPAPVMQPEPIKTVWSIHY | soluble
MAHHHHHHMFCNLNVCLAFLSSQYGKENMNARKPLAVSAGTNSRSGEGDWKSTMRSFREGVRCLGEENEALRTVRSDLDAISRKLTEKMNSLVEENGSFHKSMSTLLDDERRKVSIITDQNENLLHKLEELRKEYDDANKEISRLTDLVHTEKSRNNSVVGLFEKKLAEKEDEYQTELRLREQSLEKLKTQLEEKCSAYEAQLTDRDNLLQTERCQWKLQKEVYEKEIERLLSQVGKFAITQRSSSQQSTLGVDVAHAKPPLAPVPPPAPTDEEGDRAVVKKRRLEAVRQQRRLKENDKNDI | not soluble
ASGSDENDVVIIGGGPGGYVAAIKAAQLGFKTTCIEKRGALGGTCLNVGCIPSKALLHSSHMYHEAKHSFANHGVKVSNVEIDLAAMMGQKDKAVSNLTRGIEGLFKKNKVTYVKGYGKFVSPSEISVDTIEGENTVVKGKHIIIATGSDVKSLPGVTIDEKKIVSSTGALALSEIPKKLVVIGAGYIGLEMGSVWGRIGSEVTVVEFASEIVPTMDAEIRKQFQRSLEKQGMKFKLKTKVVGVDTSGDGVKLTVEPSAGGEQTIIEADVVLVSAGRTPFTSGLNLDKIGVETDKLGRILVNERFSTNVSGVYAIGDVIPGPMLAHKAEEDGVACVEYLAGKVGHVDYDKVPGVVYTNPEVASVGKTEEQVKETGVEYRVGKFPFMANSRAKAIDNAEGLVKIIAEKETDKILGVHIMAPNAGELIHEAAIALQYDASSEDIARVCHAHPTMSEAIKEAAMATYDKPIHI | soluble
MQRHTLPLRPLLGTLLLGLLLAGCDASRDDATALGPVPIASGDECHVCGMLIEEMPGPKGESVLPGAVRKFCSTAELFGWWLQPENRQGQARLYVHDMSQADWRHPDDARLIDATRAYYVVGIQRPGGMGATLASFADEEAATRLAAEEGGRVLRFDEIDQAVLQGVGGDHPHRHPAH | not soluble
GNFTYAHSEFLKYEEPAYNEKYRSHIGQSLNQWYGLIAERLFIDEYDVQNSPKQTFGEYGAGDIKYRDVNGDGQITDADMVPLGYPTVPEIVYGFGFSFGNQRFDISAFFQGSARSSFWIDAKATSPFQHINPTDDDPYHQDIPLLKAYANDHWSESNRNLYAMWPRLSTTVIENNVRTSSWFMRNGAFLRLKTLEVGYTLPESWTKKAYISSARVYCSGNNLLLLSGFKLWDIEMGGSGLGYPIQRVINLGVQINF | not soluble
MTKFESSVKVIPYSQERVYEKLADLSNLEAIKDRLPEDKVKNMSFDTDTLSFNVDPVGQLTLRIIEREPSKCIKFETTNSPLPFNMWIQLVAVSEEECKLKVTIGLEINPFMKAMVQKPLNEGLEKMADMLSMIQYLEHHHHHH | soluble
MARATTKQDLIMASNGQFEKLWVLIDGMSDDLQNATFADQMATAGKEAHWGRDKNLRDVLVHLYEWHQLLLNWINSNSKGERKPFLPEPYNWKTYSVMNVEFWKKHQQTPLAEAKDKLKESHRQVMALIETFSNDELFAKGVFDWTDTSTLGAYCVSATSSHYDWAMKKIKLHIKTGK | not soluble
GLDTIPTTYVDAGSVFGKTGDAEKVLNGGWNYLMETFNSYANPGYGAMLRANDAMGSDVVLNSKYGFRTHNEFSAIYGKGGTNTLSWLLAYRVINDCNGVLDNIDAAEGTQADRNRIKGQALALRGFLYLHLASCYSFAIDKDPDAVCAPIYTQSTDETIAAEGKPASSVSEVYAQSINDLEEALELIPETYVRDAKHKIDNEVVLGILSRACLYARQWEKAKTYSDKLLAKDNYLMTESEYKAGFNSVDNKEWIWGHAQTNDQSNASYQFHYLDTTTKGSYYYSFNVDPYFRDLFEDGDYRKEMLFWATDPGADVESAAYVWMRNSKFRFRDIENQLGDIVLMRVAEIYLINAEAKAHLNDPDAINKLNDLKTARGAKTIHTNLSQQDLLETIWLERRKELWGEGFSLIDIIRNQQTVVRNAYPEGPIDYIYTDENGQTHTLKKKTQGHRFFNFPDKSAFCPNSKYYLYRITDSEELANKNLYKDHPKLSIYTK | soluble
MILDYIYHSGFAIEAEGVTLIIDYYKDSSETELNKGIVHDRLLQRPGKLYVLASHFHPDHFNREVLTWKEQRPDIIYIFSKDILKHHRAQKEDAIYINKGEEYEDDMLRIQAFGSTDVGISFLIHLQGKSIFHAGDLNNWHWSEESTEQEIRKAEGDFLAEIKYLQAAVPTIDLVMFPVDRRMGKDYMKGAQQFIERIKTTIFVPMHFSEDYEGGNAFRSIAEAGGCRFITITHRGESFDI | not soluble
AKITKVQVGEALVGDGNEVAHIDLIIGPRGSPAETAFCNGLVNNKHGFTSLLAVIAPNLPCKPNTLMFNKVTINDARQAVQMFGPAQHGVAMAVQDAVAEGIIPADEADDLYVLVGVFIHWEAADDAKIQKYNYEATKLSIQRAVNGEPKASVVTEQRKSATHPFAANA | soluble
MGSDKIHHHHHHVNVEVCLFLIGHGAPGSEAGSTELSRFEAASQDIEGLRRFAIHVPAQADDCDPLSKTDASTCPRCVLQWYFDDLELLERTLQPGRAIHDLVDGSSNNGLTFTHQVMAVRTFATPNPSGPGTRAERCTYLVSYEGEAQDFNAWLTHYLLHHPPLMAQLPGIRELEIYTRLDYRSGLRIRRATAMQRNKVVFDDPAALAAALASPVRASMKQDFNAFPPYSGATLHFPMRSIYGNLKPK | not soluble
MNIKQFNEHITSLFGEHLHKYGDDEYGFTHISKDEFHKIGYTTNLTLETIEEAYRNGVDMIVTHHAPWSFLFGMEEACIEKLKQYEMNHFWVHLPLDFVKFGTCTSLFNGIGIDTILEYSTYEEEELPGIGEYKEAIPFSNLVGKLEERMEEKVKSWRNHDKPVKRIAILTGAGNNTNLIERALEKGCDTYITGEKTLYTVQHAKFKGINLIVGSHTFTEVFGVESLAHKLKERDNSIEITRLNEEHLELEHHHHHH | not soluble
GSRLNPVQLELLNKLHLETKLNAEYTFMLAEQSNWNYEVAIKGFQSSMNGIPREAFVQF | soluble
GPGSMAAIGGGSGDIEELLKQITNHPGVQGIIIVNTDGIPIRHTFQEHSRLLAVQYSALFQSLAMKARNAVLEIDNNNELLFLRVRTKKHEVLVAPDTKYLLIVIQQVESGDAVPNANGVSA | not soluble
MDGYQLTFSNNKRSDKSIVSEKLQRDCDPPITQKYFWSSGGHTFHFRAAAAEKNVTPFSTKMQGKYIKKKAM | not soluble
GTKQEKTILNMARFIRSQALTILEKANELDADEIADIAESIHDHADEIYRSALARFGDDGENL | soluble
PMDDIVRIHASSGTTGKPTVVGYTRKDIEIWSELMARSFAAAGVHKGDIIHNAYGYGLFTGGLGAHYGAERLGASVIPMSGGNTKKQIMIMKDFGSTVLTCTPSYSLFMAEAAREEGVDFRQLKLHVGIFGAEPWSESMRAEIEQKLNLCAIDIYGLSEIMGPGVAIECREAKKGLHI | not soluble
MRIAANACPALVLNADFQPLSYFPLSLWSWQEAVKAVFMDRVCVVSEYDRVVHSPSLDLSLPSVISLKEYVPVAKRAAFTRFNVFLRDGFACQYCGIRLPAHDLTFDHVVPRSKGGVTAWNNVVTACGPCNMRKANRTPREAAMPLLQRPAEPSTHRLRNEGRSFPPGYLHESWRDFLYWDVELDPFLEHHHHHH | not soluble
MASKPEKRVASSVFITLAPPRRDV | soluble
MGSDKIHHHHHHGCEKEKSHTVLELFSESQSLSPKKDFYVNEDSIAIIEGLSCDGKNLIVNDYHSGCCYTLFDKKSGEYIARFGTIGQGPAELPSPCYGYLTESDFTVFDDQTRIVMKYSLDSLRNSRKKDGSPVRLAQYKIPEAQISKLIAIDDTTFLCAGTYKSRYQYLLFNKNDSVLDYGVDVYNAADSAFQTYTRYLSNQGNLVMNPEKHTFAGSINFSSNIDFFEIVNNKIELIKSLRLGDPINKPVNEEGIYYVDLTENTQTGYIDLSATSKYVYALYSDKKMYENNRKSDTVLVFDWDGNPIKKYSLDTDAYYIAVDSTQQSLFAAVKNSSSGWKIICYALD | not soluble
MGHHHHHHSHMTATVENLTFQKDTLGNAVDKNRRHGSTEPLVLAWSSQFRRLTWGCALDALHRSPCVAASQHGVTHLIRSSRTPHSTRCRKEDAQPGHHGNGAASVTAQARGQR | not soluble
SNASNAVKRKGVEVIIALDISNSMLAQDVQPSRLEKAKRLISRLVDELDNDKVGMIVFAGDAFTQLPITSDYISAKMFLESISPSLISKQGTAIGEAINLATRSFTPQEGVGRAIIVITDGENHEGGAVEAAKAAAEKGIQVSVLGVGMPEGAPIPVEGTNDYRRDREGNVIVTRLNEGMCQEIAKDGKGIYVRVDNSNSAQKAISQEISKMAKSDVE | soluble
MKDKIIDNAITLFSEKGYDGTTLDDIAKSVNIKKASLYYHFDSKKSIYEQSVKCCFDYLNNIIMMNQNKSNYSIDALYQFLFEFIFDIEERYIRMYVQLSNTPEEFSGNIYGQIQDLNQSLSKEIAKFYDESKIKMTKEDFQNLILLFLESWYLKASFSQKFGAVEESKSQFKDEVYSLLNIFLKK | not soluble
MLVAERQQKIVEIVNMRSSIRVSELSDIFSVTEETIRRDLEKLEKEHKLSRSHGGAVSIQQKESEIHFSEREITNVIEKKAIAHEAAKYVKSGDRIILDASTTAWYMAKILPDIELTVITNSMKAAIELSNKENISVISTGGILLEKSLSFAGPLAERSLETYHVNKTFLSCKGFDVHNGMSDSNEWQALLKKRMIERSDQTILMADSSKWGNREFSHIASLQDVSRLITDSGLDPASVKALEDKKVKVTAVPLSKRGLEHHHHHH | soluble
QVQLQQSGPGLVKPSQTLSLTCAISGDSVSSNSAAWNWIRQSPSRGLEWLGRTYYRSKWFNDYAVSVQSRITINPDTSKNQFSLQLNSVTPEDTAVYYCARGIVFSYAMDVWGQGTTVTVSSASTKGPSVFPLAPSSKSTSGGTAALGCLVKDYFPEPVTVSWNSGALTSGVHTFPAVLQSSGLYSLSSVVTVPSSSLGTQTYICNVNHKPSNTKVDKKVEPKSCAADEVDHHHHHH | soluble
MRRICKDERRIQSVNSSEEIAVSGMSAGRSAMRMGPAELVQAAAMARRFYLEGKSKIQIAEEFGVSRFKVARVLETALERDLVRIEIRVPAELDAERSDALRARYGLRHAVVVESPADAEETPDPENLGEVAADLLGELVNEGDVLGLAWGRSTIHMAAALDRLPPCTVVQLTGVYDAGTAERGSVEAVRRAAQVSGGDAHPIYAPMLLPDAATAQALRHQTGIARAFEYFDKVTVACVSIGSWEPGISTVHDMLSDEERAHYASLGVAAEMSAHLFDAEGRRVGRDLGERCITVKADQLRRIPEVVAIAGGQRKAAAIDAVLRSGLVTSLVTDTSAADYLMTVGSAPKSTLNRTDPDGI | not soluble
